In patent US20250188176A1 (INVETX, published 2025):
Positions count from the first letter of the chain named.

Columns and labels:
[1] = target: canine IL-4RA on canine DH82 cells (canine); test: cell-based or functional assay
[2] = target: T1, Extracellular domain (ECD) of the canine IL-4 receptor alpha-AviTag-His Tag (canine); test: SPR, IgG captured via anti-dog Fc
T1 construct: expressed in CHO cells; also called canine IL-4RA; canine IL4Ra
T1 chain: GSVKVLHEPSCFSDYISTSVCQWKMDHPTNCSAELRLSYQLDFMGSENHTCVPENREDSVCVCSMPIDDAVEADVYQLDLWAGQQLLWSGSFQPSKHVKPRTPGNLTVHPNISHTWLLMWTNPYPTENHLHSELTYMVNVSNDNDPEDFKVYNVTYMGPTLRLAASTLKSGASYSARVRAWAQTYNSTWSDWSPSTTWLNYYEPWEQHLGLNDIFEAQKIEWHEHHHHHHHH
Method: (§1) Both the heavy and light chain variants were evaluated for their binding kinetics to canine IL-4RA using SPR on a Biacore T200. The antibodies were captured using a CM5 Series S chip amine coupled with an anti-dog Fc antibody (Jackson Immunoresearch). […] The length of the association time was 120 s and the dissociation time was run for 600 s. The chip surface was regenerated with 10 mM glycine. Double reference-subtracted sensorgrams were fitted to a 1:1 binding model using Biacore T200 Evaluation software.
Six different combinations of heavy and light chain variants (Table 30) were co-transfected and produced as described above. The binding kinetics of the heavy and light chain variants to canine IL-4RA was determined using the SPR methods described above.

[3] = target: T2, Extracellular domain (ECD) of the canine IL-4 receptor alpha-V5 epitope-AviTag-His Tag (canine); test: SPR, Fab-SASA captured on BSA;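 note: biacore T200 SPR, Fab-SASA variants from E. coli conditioned medium captured on BSA-coated CM5 chip, canine IL-4RA injected 120 s then 420 s dissociation, 1:1 model fit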
T2 construct: monomeric form isolated by size exclusion; also called canine IL-4RA-V5-Avi-His; canine IL-4RA
T2 chain: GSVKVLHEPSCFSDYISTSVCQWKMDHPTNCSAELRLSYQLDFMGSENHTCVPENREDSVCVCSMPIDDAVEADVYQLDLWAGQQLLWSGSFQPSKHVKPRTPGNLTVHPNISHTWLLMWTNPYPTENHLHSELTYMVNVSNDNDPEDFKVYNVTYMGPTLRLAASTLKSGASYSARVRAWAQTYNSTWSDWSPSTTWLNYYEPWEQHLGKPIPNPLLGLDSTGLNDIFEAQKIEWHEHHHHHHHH
Method: Forty-four PML clones were selected from each library for expression in E. coli in 96 deep-well plates by inoculating into 2YT medium and inducing with 0.2 mM IPTG overnight at room temperature. The Fab secreted in the medium was analyzed for binding activity by completing an ELISA. […] The 39 unique clones were confirmed by an off-rate screening assay in an SPR assay performed on a Biacore T200. For the SPR analyses, bovine serum albumin (BSA) was immobilized to CM5 sensor chip. The sensor chip surface was activated with 50 mmol/L H-Hydroxysuccinimide and 200 mmol/L 1-ethyl-3-(3-dimethylaminopropyl) carbodiimide hydrochloride for 420 s. Afterwards, BSA diluted in 10 mM sodium acetate, pH 4.5 was injected. After the amine coupling reaction, the remaining active coupling sites on the chip surface were blocked with 1 mM ethanolamine hydrochloride. The selected Fab-SASA variants in conditioned medium were captured on the BSA-coated chips. The running buffer was HBS-EP (10 mM HEPES 500 mM NaCl, 3 mM EDTA, 0.05% Tween 20, pH 7.4). After equilibration, canine IL-4RA was injected for 120 seconds (association phase) followed by the injection of running buffer for 420 sec (dissociation phase). The off-rates of the Fab-SASA clones were obtained from fitting the experimental data locally to a 1:1 interaction model using the Biacore T200 evaluation software.

[4] = target: T1, Extracellular domain (ECD) of the …; test: SPR, IgG captured via anti-dog Fc
Method: as §1

[5] = target: T1, Extracellular domain (ECD) of the …; test: SPR, IgG captured via anti-dog H+L
Method: Affinities were determined by SPR on a Biacore T200. The antibodies were captured using a CM5 Series S chip amine coupled with an anti-dog H+L antibody (Jackson Immunoresearch). Antigen, canine IL-4RA (EQ ID NO:2), binding was then assessed at multiple concentrations starting at 100 nM using PBSP+ running buffer (Cytiva) with a flow rate of 30 μL/min. […] The length of the association time was 120 s and the dissociation time was run for 600 s. The chip surface was regenerated with 10 mM glycine.

[6] = target: T1, Extracellular domain (ECD) of the …; test: SPR, IgG captured via anti-dog Fc
Method: as §1

B1: GFmix_PTH-H + GFmix3_KTHS-L (antibody, V domains shown)
VH: EVQLVESGGDLVKPGGSLRLSCVASGFPFRDYAMTWVRQAPGKGLQWLSLISGSGGKTYYADAVKGRFTISRDNAKNTLYLQMNSLRAEDTAVYYCAVDRLTKTIRPQYYGLWHWGQGTLVTVSS
VL: DIVMTQTPLSLSVSPGETASISCRSSKSLTYSIGYNYLDWYMQKPGQSPQGLIYLGSKRASGVSDRFSGSGSGADFTLKISRVEADDAGVYYCMQGLHSPLSFGQGTKLEIKR
In the case of B1, the “IC50: % inhibition of STAT6 phosphorylation (AlphaLISA pSTAT6) in canine DH82 cells stimulated with 20 ng/mL canine IL-4” value [1] is reported as 0.6 nM, the Kd [2] is reported as 0.17 nM and the koff [2] is reported as 7.58e-05 s⁻¹. The kon [2] was 447000 M⁻¹ s⁻¹.

B2: TB640_005 Fab-SASA VL-T102S (Fab, V domains shown)
VH: B1 VH with P28T, L48V, H114V
VL: B1 VL with K27Q, T30L, M42L, S64P, A74T, K79R, D86N, A88T, H98Q
notes: not shown: SASA tag then His-tag
With B2 the Kd [3] was 6.61 nM, the “Ratio WT-kd/clone-kd” value [3] was 1.94 and the koff [3] was 0.000492 s⁻¹. The kon [3] was 74400 M⁻¹ s⁻¹.

B3: FJP05A03-H + FJP10A09-L (antibody, V domains shown)
VH: B1 VH with F27L, T35A, H114V
VL: B1 VL with K27Q
Work on B3 yielded a Kd [2] of 0.201 nM, a koff [2] of 8.87e-05 s⁻¹ and a kon [2] of 442000 M⁻¹ s⁻¹.

B4: TB640_005 Fab-SASA VL-Q95N (Fab, V domains shown)
VH: B1 VH with P28T, L48V, H114V
VL: DIVMTQTPLSLSVSPGETASISCRSSQSLLYSIGYNYLDWYLQKPGQSPQGLIYLGSKRASGVPDRFSGSGSGTDFTLRISRVEANDTGVYYCMNGLQSPLTFGQGTKLEIKR
notes: as for B2
With B4 the Kd [3] was 4.15 nM, the “Ratio WT-kd/clone-kd” value [3] was 1.99 and the koff [3] was 0.00048 s⁻¹. For the same binder, the kon [3] was 116000 M⁻¹ s⁻¹.

B5: 21188-H + GFmix_THS-L (antibody, V domains shown)
VH: B1 VH with P28T
VL: B1 VL with K27Q, S102G
B5 showed a Kd [4] of 0.162 nM, a koff [4] of 5.78e-05 s⁻¹ and a kon [4] of 357000 M⁻¹ s⁻¹.

B6: TB640_005 Fab-SASA VL-S57N (Fab, V domains shown)
VH: B1 VH with P28T, L48V, H114V
VL: B4 VL with S57N, N95Q
notes: as for B2
In the case of B6, the Kd [3] is reported as 8.8 nM, the “Ratio WT-kd/clone-kd” value [3] is reported as 1.32 and the koff [3] is reported as 0.00072 s⁻¹. For the same binder, the kon [3] was 81800 M⁻¹ s⁻¹.

B7: TB640_005 (antibody, V domains shown)
VH: B1 VH with P28T, L48V, H114V
VL: B4 VL with N95Q
notes: caninized IgG; also called TB640_005-H + TB640_005-L
B7 was tested, and the Kd [5] was 2.72 nM, the koff [5] was 0.000484 s⁻¹ and the kon [5] was 180000 M⁻¹ s⁻¹. For the same binder, the Kd [2] was 2.29 nM, the koff [2] was 0.000486 s⁻¹ and the kon [2] was 212000 M⁻¹ s⁻¹.

B8: Gfmix_PTH-H + 21188-L (antibody, V domains shown)
VH: B1 VH
VL: B1 VL with K27Q, H98Q, S102G
B8 was tested, and the Kd [6] was 0.381 nM, the koff [6] was 9.71e-05 s⁻¹ and the kon [6] was 255000 M⁻¹ s⁻¹.

B9: TB640_005 Fab-SASA VL-S57H (Fab, V domains shown)
VH: B1 VH with P28T, L48V, H114V
VL: B4 VL with S57H, N95Q
notes: as for B2
With B9 the Kd [3] was 8.2 nM, the “Ratio WT-kd/clone-kd” value [3] was 1.41 and the koff [3] was 0.000677 s⁻¹. The kon [3] was 82600 M⁻¹ s⁻¹.

B10: 21188-H + GFmix2_KTHG-L (antibody, V domains shown)
VH: B1 VH with P28T
VL: B1 VL with S102G
With B10 the Kd [4] was 0.168 nM, the koff [4] was 5.92e-05 s⁻¹ and the kon [4] was 354000 M⁻¹ s⁻¹.

B11: TB640_005 Fab-SASA VL-S57T (Fab, V domains shown)
VH: B1 VH with P28T, L48V, H114V
VL: B4 VL with S57T, N95Q
notes: as for B2
With B11 the Kd [3] was 15 nM, the “Ratio WT-kd/clone-kd” value [3] was 0.91 and the koff [3] was 0.00105 s⁻¹. For the same binder, the kon [3] was 70400 M⁻¹ s⁻¹.

B12: Fjmix_PS-H + 21188-L (antibody, V domains shown)
VH: B1 VH with T35D, H114S
VL: B1 VL with K27Q, H98Q, S102G
Binder B12 has a Kd [6] of 0.878 nM, a koff [6] of 0.000206 s⁻¹ and a kon [6] of 235000 M⁻¹ s⁻¹.

B13: FJP06D01-H + 21188-L (antibody, V domains shown)
VH: B1 VH with T35D, H114V
VL: B1 VL with K27Q, H98Q, S102G
For B13, the Kd [6] was 0.908 nM, the koff [6] was 0.000208 s⁻¹ and the kon [6] was 230000 M⁻¹ s⁻¹.

B14: FJP05A03-H + GFmix_THS-L (antibody, V domains shown)
VH: B1 VH with F27L, T35A, H114V
VL: B1 VL with K27Q, S102G
With B14 the Kd [2] was 0.169 nM, the koff [2] was 8.32e-05 s⁻¹ and the kon [2] was 492000 M⁻¹ s⁻¹.

B15: TB640_005 Fab-SASA VL-T102G (Fab, V domains shown)
VH: B1 VH with P28T, L48V, H114V
VL: B4 VL with N95Q, T102G
notes: as for B2
With B15 the Kd [3] was 5.74 nM, the “Ratio WT-kd/clone-kd” value [3] was 2.11 and the koff [3] was 0.000451 s⁻¹. For the same binder, the kon [3] was 78500 M⁻¹ s⁻¹.
